The values that follow come from the supplement of paper PMC10598134.

A short description of the series: collision cross section of modified peptide (TIMS, N2, iRT-aligned); higher = larger / more extended gas-phase ion. The method, boiled down: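 On a timsTOF Pro/HT (dda-PASEF, nitrogen, ~2.4 mbar), synthetic peptide pools were analysed after a 120-min nanoflow C18 separation at 60 °C and identified in MaxQuant. Three reference ions served for 1/K0 calibration, with run-wise alignment to the median iRT peptide deviation. Collision cross section comes from the Mason-Schamp equation, using the most abundant feature per charge state averaged over 1–3 technical replicates.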

Setting [1] is: charge state: 2, modification: Succinyl.
[2] abbreviates: charge state: 2, modification: Methyl (R).
Where [3] appears, read: charge state: 3, modification: Methyl (R).
Where [4] appears, read: charge state: 2, modification: Acetyl (K).
[5] abbreviates: charge state: 2, modification: Glutarylation.
Setting [6] is: charge state: 2, modification: GlyGly (K).
The mark [7] stands for this setting: charge state: 3, modification: GlyGly (K).
The mark [8] stands for this setting: charge state: 2, modification: Malonyl.
Where [9] appears, read: charge state: 3, modification: Malonyl.
Where [10] appears, read: charge state: 3, modification: Succinyl.
The mark [11] stands for this setting: charge state: 2, modification: Formyl.
Where [12] appears, read: charge state: 2, modification: hydroxyisobutyryl.
The mark [13] stands for this setting: charge state: 3, modification: hydroxyisobutyryl.
[14] abbreviates: charge state: 2, modification: Butyryl.
[15] abbreviates: charge state: 3, modification: Butyryl.
Setting [16] is: charge state: 2, modification: Phospho (Y).
Where [17] appears, read: charge state: 2, modification: Biotin.
Where [18] appears, read: charge state: 2, modification: HexNAc (ST).
[19] abbreviates: charge state: 3, modification: HexNAc (ST).
Setting [20] is: charge state: 3, modification: Glutarylation.
Setting [21] is: charge state: 3, modification: Methyl (K).
The mark [22] stands for this setting: charge state: 2, modification: Crotonyl.
The mark [23] stands for this setting: charge state: 3, modification: Crotonyl.

± gives the standard deviation.

As for ALLQAKASGK [_ALLQAK(Succinyl)ASGK_], the collision cross section under setting [1] was determined as 349.13 ± 0.82 Å².
With “SGATAGAAGGRGK [_SGATAGAAGGR(Methyl (R))GK_]”, the collision cross section by setting is: under setting [2], 366.66 ± 1.5 Å²; under setting [3], 448.31 ± 3.9 Å².
For “TLQKQSVVYGGK [_TLQK(Acetyl (K))QSVVYGGK_]”, the collision cross section under setting [4] is given as 392.07 ± 0.61 Å².
Under setting [5], “ILDLKTGTVK [_ILDLK(Gluratylation)TGTVK_]” gave a collision cross section of 368.56 ± 0.72 Å².
For the substance “VPTTEKPTVTVNFR [_VPTTEK(GlyGly (K))PTVTVNFR_]”, the collision cross section by setting is: under setting [6], 431.31 ± 0.85 Å²; under setting [7], 523.98 ± 3.9 Å².
Take “AAINQKLIETGER [_AAINQK(Malonyl)LIETGER_]”: the collision cross section reads like this: under setting [8], 404.84 ± 0.034 Å²; under setting [9], 473.19 Å².
Where the note is “charge state: 2, modification: Citrullination (R)”, “GTGRGGGGGGGGGAPR [_GTGR(Citrullination (R))GGGGGGGGGAPR_]” showed a collision cross section of 349.34 ± 0.64 Å².
“VFIGNLNTLVVKKK [_VFIGNLNTLVVK(Succinyl)KK_]” had a collision cross section under setting [10] of 514.83 ± 3.9 Å².
Substance “GFCFITYTDEEPVKK [_GFCFITYTDEEPVK(Formyl)K_]” showed a collision cross section under setting [11] of 450.51 Å².
Take “VGTASVLQPVKK [_VGTASVLQPVK(hydroxyisobutyryl)K_]”: the collision cross section under setting [12] was 388.32 ± 0.29 Å² and the collision cross section under setting [13] stood at 413.48 ± 1.6 Å².
With “DTPTSAGPNSFNKGK [_DTPTSAGPNSFNK(Butyryl)GK_]”, the collision cross section is 412.93 ± 0.78 Å² under setting [14] and 464.51 ± 3.2 Å² under setting [15].
As for PSVSTKLISK [_PSVSTK(Butyryl)LISK_], the collision cross section under setting [14] is recorded as 357.77 ± 1.8 Å².
With “HELQANCYEEVKDR [_HELQANCYEEVK(Butyryl)DR_]”, the collision cross section by setting is: under setting [14], 452.47 ± 0.51 Å²; under setting [15], 502.99 ± 3.8 Å².
With IQTKAGEATVK [_IQTK(Butyryl)AGEATVK_], the collision cross section under setting [14] is on record as 371.66 ± 1.8 Å².
In the case of “VFIGNLNTLVVKK [_VFIGNLNTLVVK(GlyGly (K))K_]”, the collision cross section came out at 445.95 ± 1.4 Å² under setting [6] and 487.11 ± 2 Å² under setting [7].
Consider “VSPASSVDSNIPSSQGYKK [_VSPASSVDSNIPSSQGYK(Malonyl)K_]”, for which the collision cross section is recorded as 465.75 ± 0.51 Å² under setting [8] and 526.18 ± 21 Å² under setting [9].
“GTVPDDAVEALADSLGKK [_GTVPDDAVEALADSLGK(Malonyl)K_]”: the collision cross section under setting [8] was determined as 454.67 ± 1.4 Å².
In turn, AYILNLVK [_AY(Phospho (Y))ILNLVK_] gave a collision cross section under setting [16] of 363.28 ± 0.69 Å².
Substance VFSIISSEKELK [_VFSIISSEK(Biotin)ELK_] showed a collision cross section under setting [17] of 432.12 ± 1.1 Å².
On to “FSPPSSSLQPGK [_FSPPSSS(HexNAc (ST))LQPGK_]”, for which the collision cross section under setting [18] turned out to be 396.47 ± 1.2 Å².
Regarding “YIDNQVVSTKGER [_YIDNQVVST(HexNAc (ST))KGER_]”, the collision cross section reads like this: under setting [18], 428.63 ± 0.14 Å²; under setting [19], 510.94 ± 0.18 Å².
As to “IISSIEQKEENK [_IISSIEQK(Acetyl (K))EENK_]”, the collision cross section under setting [4] is 401.35 ± 0.23 Å².
On to “TELLPGDRDNLAIQTR [_TELLPGDRDNLAIQT(HexNAc (ST))R_]”, for which the collision cross section under setting [19] amounted to 528.81 ± 0.18 Å².
As to “TGGTQTDLFTCGKCK [_TGGTQTDLFTCGK(GlyGly (K))CK_]”, the collision cross section is listed as 442.06 Å² under setting [6] and 489.77 ± 1.1 Å² under setting [7].
“LPTTAASTPDAVDK [_LPT(HexNAc (ST))TAASTPDAVDK_]” gave a collision cross section under setting [18] of 413.95 ± 0.62 Å².
For the substance “VLDSGAPIKIPVGPETLGR [_VLDSGAPIK(Butyryl)IPVGPETLGR_]”, the collision cross section is, setting by setting: under setting [14], 472.51 ± 0.49 Å²; under setting [15], 512.04 ± 1.8 Å².
For “ITESVAETAQTIKK [_ITESVAETAQTIK(Butyryl)K_]”, in that order: 425.5 ± 0.24 Å² and 518.39 ± 2.7 Å².
With LLEQKTQESQK [_LLEQK(Acetyl (K))TQESQK_], under setting [4], the collision cross section was found to be 392.69 ± 0.79 Å².
Regarding “IHNAENIQPGEQKYEYK [_IHNAENIQPGEQK(Gluratylation)YEYK_]”, the collision cross section under setting [5] is 490.8 ± 1.2 Å² and the collision cross section under setting [20] was 532.09 ± 1.1 Å².
For “ITLSKHQNVQLPR [_ITLSK(Gluratylation)HQNVQLPR_]”, in that order: 422.98 ± 0.48 Å² and 526.02 ± 27 Å².
DLEEAEEYK [_DLEEAEEY(Phospho (Y))K_] gave a collision cross section under setting [16] of 369.49 ± 0.064 Å².
Take “TTSYPTPRPYPKPAPSSGK [_TTSYPTPRPYPKPAPS(HexNAc (ST))SGK_]”: the collision cross section under setting [19] is recorded as 526.67 Å².
The substance “DESFLGKLGGTLAR [_DESFLGK(Succinyl)LGGTLAR_]” came in with a collision cross section under setting [1] of 416.2 ± 0.36 Å² and a collision cross section under setting [10] of 490.1 ± 2.1 Å².
In turn, “HGGSGGRGVSVSSAR [_HGGSGGR(Methyl (R))GVSVSSAR_]” displayed a collision cross section under setting [3] of 477.29 ± 1.5 Å².
LEKTIDDLEEK [_LEK(Methyl (K))TIDDLEEK_]: the collision cross section by setting is: (charge state: 2, modification: Methyl (K)) 405.66 ± 1.3 Å²; under setting [21], 473.34 ± 3.6 Å².
LGNDFHTNKR [_LGNDFHTNK(Dimethyl (K))R_]: the collision cross section by setting is: (charge state: 2, modification: Dimethyl (K)) 366.02 ± 0.57 Å²; (charge state: 3, modification: Dimethyl (K)) 412.91 ± 1.1 Å².
In turn, “SLGEPAAGEGSAKR [_SLGEPAAGEGSAK(Acetyl (K))R_]” returned a collision cross section under setting [4] of 382.38 ± 0.43 Å² and a collision cross section (charge state: 3, modification: Acetyl (K)) of 484.93 ± 0.63 Å².
In the case of VRFHNPR [_VR(Methyl (R))FHNPR_], the collision cross section is, setting by setting: under setting [2], 340.13 ± 1.8 Å²; under setting [3], 406.89 ± 0.36 Å².
In turn, GTPGKPGPR [_GTPGKP(Hydroxyproline)GPR_] displayed a collision cross section (charge state: 2, modification: Hydroxyproline) of 308.55 Å².
“STLEEPNLQPLQR [_S(HexNAc (ST))TLEEPNLQPLQR_]”: under setting [18], the collision cross section is reported as 436.25 ± 0.56 Å².
Regarding “TLDEILQEKK [_TLDEILQEK(Trimethyl (K))K_]”, the collision cross section reads like this: (charge state: 2, modification: Trimethyl (K)) 388.3 ± 0.013 Å²; (charge state: 3, modification: Trimethyl (K)) 439.75 ± 2.4 Å².
The substance “AIEINPDSAQPYK [_AIEINPDSAQPY(Phospho (Y))K_]” displayed a collision cross section under setting [16] of 402.87 ± 0.061 Å².
Take VNALKNLQVK [_VNALK(Acetyl (K))NLQVK_]: under setting [4], the collision cross section came out at 369.79 ± 0.48 Å².
In the case of “PGGEGPQCEKTTDVK [_PGGEGPQCEK(Malonyl)TTDVK_]”, the collision cross section under setting [8] was determined as 427.2 Å².
Consider “SGNLTEDDKHNNAK [_SGNLTEDDK(hydroxyisobutyryl)HNNAK_]”, for which the collision cross section under setting [12] was determined as 427.86 ± 0.82 Å² and the collision cross section under setting [13] is on record as 488.54 ± 1.1 Å².
As for LLFSNTAAQKLR [_LLFSNTAAQK(Crotonyl)LR_], the collision cross section is, setting by setting: under setting [22], 404.43 ± 0.55 Å²; under setting [23], 483.58 ± 1.6 Å².
STCTYVGAAK [_STCTY(Nitro (Y))VGAAK_] gave a collision cross section (charge state: 2, modification: Nitro (Y)) of 340.86 ± 0.72 Å².
For the substance “GEVGAGAGPGAQAGPSAKR [_GEVGAGAGPGAQAGPSAK(Malonyl)R_]”, the collision cross section by setting is: under setting [8], 415.94 ± 0.58 Å²; under setting [9], 468.8 ± 1.8 Å².
“SPPLPEHQKIPCNSAEPK [_SPPLPEHQK(Methyl (K))IPCNSAEPK_]” gave a collision cross section under setting [21] of 546.75 Å².
Regarding “VLDSGAPIKIPVGPETLGR [_VLDSGAPIK(Gluratylation)IPVGPETLGR_]”, the collision cross section is given as 465.83 ± 1.5 Å² under setting [5] and 505.05 ± 1 Å² under setting [20].
In the case of GETASKLQSEISR [_GETASK(Formyl)LQSEISR_], the collision cross section under setting [11] was determined as 382.6 ± 1.7 Å².
Take “AAHGRGALAEAAR [_AAHGR(Methyl (R))GALAEAAR_]”: the collision cross section is reported as 401.51 ± 8.3 Å² under setting [2] and 469.45 ± 1.5 Å² under setting [3].
For “ITESVAETAQTIKK [_ITESVAETAQTIK(Biotin)K_]”, the collision cross section under setting [17] is reported as 443.04 ± 1.4 Å².
As for “VGLQVVAVKAPGFGDNR [_VGLQVVAVK(Crotonyl)APGFGDNR_]”, the collision cross section reads like this: under setting [22], 449.86 ± 0.94 Å²; under setting [23], 499.08 ± 1.6 Å².
For “LQDVSGQLSSSKK [_LQDVSGQLSSSK(Malonyl)K_]”, the collision cross section under setting [8] is given as 397.79 ± 0.61 Å².
Take SLKLNTAEDAK [_SLK(GlyGly (K))LNTAEDAK_]: the collision cross section reads like this: under setting [6], 394.52 ± 0.87 Å²; under setting [7], 458.17 ± 2 Å².
In turn, SGFGKFER [_SGFGK(Acetyl (K))FER_] returned a collision cross section under setting [4] of 331.68 ± 1.9 Å².
For the substance “PANEKATDDYHYEK [_PANEK(Formyl)ATDDYHYEK_]”, the collision cross section by setting is: under setting [11], 435.25 ± 0.72 Å²; (charge state: 3, modification: Formyl) 497.77 ± 2.4 Å².
With “VNVEAPDVNLEGLGGKLK [_VNVEAPDVNLEGLGGK(hydroxyisobutyryl)LK_]”, the collision cross section runs as follows: under setting [12], 461.55 ± 2 Å²; under setting [13], 550.67 ± 0.8 Å².
